Assay results: patent US20060270831A1 (AFFYMAX, published 2006)
Bridge positions count the residues as written; N and C are the ends. Square brackets hold non-standard residues; d marks the D form. Ends that are not written are not given here. I, II: the chains in the order shown. 1Nal = N[C@@H](Cc1cccc2ccccc12)C(=O)O; PEG = not defined here

biological target: T1, human erythropoietin receptor on Ba/F3-huEPOR cells (human, UniProt P19235 25-508); experiment: cell-based or functional assay
T1 sequence (looked up): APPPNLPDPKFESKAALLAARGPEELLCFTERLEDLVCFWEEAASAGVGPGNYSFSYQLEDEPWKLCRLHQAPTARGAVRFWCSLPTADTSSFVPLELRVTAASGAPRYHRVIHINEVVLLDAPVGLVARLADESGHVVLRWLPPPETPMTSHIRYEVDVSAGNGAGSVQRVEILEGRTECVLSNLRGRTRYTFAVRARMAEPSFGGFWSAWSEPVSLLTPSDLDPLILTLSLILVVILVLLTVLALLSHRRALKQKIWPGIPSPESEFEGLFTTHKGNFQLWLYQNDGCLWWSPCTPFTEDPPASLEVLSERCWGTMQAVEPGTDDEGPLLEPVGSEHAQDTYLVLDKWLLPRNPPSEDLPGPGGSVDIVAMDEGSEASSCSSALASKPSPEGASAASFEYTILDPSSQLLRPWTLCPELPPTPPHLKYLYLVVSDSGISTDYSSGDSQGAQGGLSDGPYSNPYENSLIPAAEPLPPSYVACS

Binder	EC50 (nM), bioassay (Ba/F3-huEPOR cell proliferation)
GGTYSCHFGPLT[1Nal]VCRPQGG (not fully specified (C-terminus); cysteine pairing not given here; also: homodimer: C-termini joined via beta-alanine to a lysine linker)	5 nM
GGTYSCHFGPLT[1Nal]VCRPQ (cysteine pairing not given here; also: homodimer: C-termini joined through a lysine linker)	50 nM
GGTYSCHFGPLT[1Nal]VCRPQGG (disulfide 6-15; also: dimer: C-termini of both chains bound to lysine (amide) linker)	0.5 nM
Ac-GGTYSCHFGPLT[1Nal]VCRPQGGK (not fully specified; also: cysteine state not given here)	2 nM
GGTYSCHFGPLT[1Nal]VCRPQGG (disulfide 6-15; not fully specified (C-terminus); also: dimer: each chain joined through βAla to lysine linker)	0.3 nM
Peptide dimer of Example 2, Code No. 20528 (R1 = R2 = GGTYSCHFGPLTBVCRPQGG, n1 = 1, n2 = 0, lysine linker, free cysteine thiols) (cysteine pairing not given here; also: dimer: C-termini joined through lysine linker, one chain (R1) via a beta-alanine, the other (R2) directly) peptide 1: GGTYSCHFGPLT[1Nal]VCRPQGG peptide 2: GGTYSCHFGPLT[1Nal]VCRPQGG	6 nM
GGTYSCHFGPLT[1Nal]VCRPQGG (cysteine pairing not given here; also: dimer: two identical chains joined at C-termini through a lysine amide linker)	6 nM
GTYSCHFGPLT[1Nal]VCRPQ (cysteine pairing not given here; also: dimer: C-termini of both chains bound to lysine linker)	100 nM
Peptide dimer of Example 7, Code No. 17286 (R1 = R2 = GGTYSCHFGPLTBVCRPQGG, n1 = 1, n2 = 0, lysine linker, intramolecular disulfide in each chain) (disulfide I:6-I:15, II:6-II:15; not fully specified (C-terminus); also: dimer: C-termini joined by lysine linker, R1 through βAla, R2 directly, which chain is R1 not given here) peptide 1: GGTYSCHFGPLT[1Nal]VCRPQGG peptide 2: GGTYSCHFGPLT[1Nal]VCRPQGG	0.4 nM
Peptide dimer of Example 10, Code No. 17644 (R1 = R2 = GGTYSCHFGPLTBVCRPQGG, both N-termini acetylated, n1 = 1, n2 = 0, lysine linker) (cysteine pairing not given here; also: dimer: C-termini joined through lysine linker, one chain (R1) via a beta-alanine, the other (R2) directly) peptide 1: Ac-GGTYSCHFGPLT[1Nal]VCRPQGG peptide 2: Ac-GGTYSCHFGPLT[1Nal]VCRPQGG	5 nM
{PEG}-GGTYSCHFGPLT[1Nal]VCRPQGG (not fully specified (C-terminus); cysteine pairing not given here; reading uncertain; also: homodimer: C-termini joined via beta-alanine to a lysine linker, PEG size not given here)	0.4 nM

biological target: T1, human erythropoietin receptor on …; experiment: cell-based or functional assay; remark: another data set of the same source

Binder	EC50, bioassay (Ba/F3-huEPOR cell proliferation)
GGTYSCHFGPLT[1Nal]VCRPQGG (cysteine pairing not given here) [monomeric compound having the sequence GGTYSCHFGPLTBVCRPQGG (SEQ ID NO: 7)]	200 nM
